Data on ten molecules can be found in PMC5182059.

B1: Ric-8A (1-491) G457A (domain or fragment)
chain: MEPRAVADALETGEEDAVTEALRSFNREHSQSFTFDDAQQEDRKRLAKLLVSVLEQGLSPKHRVTWLQTIRILSRDRSCLDSFASRQSLHALACYADIAISEEPIPQPPDMDVLLESLKCLCNLVLSSPTAQMLAAEARLVVRLAERVGLYRKRSYPHEVQFFDLRLLFLLTALRTDVRQQLFQELHGVRLLTDALELTLGVAPKENPLVILPAQETERAMEILKVLFNITYDSVKREVDEEDAALYRYLGTLLRHCVMADAAGDRTEEFHGHTVNLLGNLPLKCLDVLLALELHEGSLEFMGVNMDVINALLAFLEKRLHQTHRLKECVAPVLSVLTECARMHRPARKFLKAQVLPPLRDVRTRPEVGDLLRNKLVRLMTHLDTDVKRVAAEFLFVLCSESVPRFIKYTGYGNAAGLLAARGLMAGGRPEGQYSEDEDTDTEEYREAKASINPVTARVEEKPPNPMEGMTEEQKEHEAMKLVNMFDKLSR
B2: Ric-8A (1-491) V459A (domain or fragment)
chain: MEPRAVADALETGEEDAVTEALRSFNREHSQSFTFDDAQQEDRKRLAKLLVSVLEQGLSPKHRVTWLQTIRILSRDRSCLDSFASRQSLHALACYADIAISEEPIPQPPDMDVLLESLKCLCNLVLSSPTAQMLAAEARLVVRLAERVGLYRKRSYPHEVQFFDLRLLFLLTALRTDVRQQLFQELHGVRLLTDALELTLGVAPKENPLVILPAQETERAMEILKVLFNITYDSVKREVDEEDAALYRYLGTLLRHCVMADAAGDRTEEFHGHTVNLLGNLPLKCLDVLLALELHEGSLEFMGVNMDVINALLAFLEKRLHQTHRLKECVAPVLSVLTECARMHRPARKFLKAQVLPPLRDVRTRPEVGDLLRNKLVRLMTHLDTDVKRVAAEFLFVLCSESVPRFIKYTGYGNAAGLLAARGLMAGGRPEGQYSEDEDTDTEEYREAKASINPVTGRAEEKPPNPMEGMTEEQKEHEAMKLVNMFDKLSR
B3: Ric-8A (1-491) E460A (domain or fragment)
chain: MEPRAVADALETGEEDAVTEALRSFNREHSQSFTFDDAQQEDRKRLAKLLVSVLEQGLSPKHRVTWLQTIRILSRDRSCLDSFASRQSLHALACYADIAISEEPIPQPPDMDVLLESLKCLCNLVLSSPTAQMLAAEARLVVRLAERVGLYRKRSYPHEVQFFDLRLLFLLTALRTDVRQQLFQELHGVRLLTDALELTLGVAPKENPLVILPAQETERAMEILKVLFNITYDSVKREVDEEDAALYRYLGTLLRHCVMADAAGDRTEEFHGHTVNLLGNLPLKCLDVLLALELHEGSLEFMGVNMDVINALLAFLEKRLHQTHRLKECVAPVLSVLTECARMHRPARKFLKAQVLPPLRDVRTRPEVGDLLRNKLVRLMTHLDTDVKRVAAEFLFVLCSESVPRFIKYTGYGNAAGLLAARGLMAGGRPEGQYSEDEDTDTEEYREAKASINPVTGRVAEKPPNPMEGMTEEQKEHEAMKLVNMFDKLSR
B4: Ric-8A (1-491) P463A (domain or fragment)
chain: MEPRAVADALETGEEDAVTEALRSFNREHSQSFTFDDAQQEDRKRLAKLLVSVLEQGLSPKHRVTWLQTIRILSRDRSCLDSFASRQSLHALACYADIAISEEPIPQPPDMDVLLESLKCLCNLVLSSPTAQMLAAEARLVVRLAERVGLYRKRSYPHEVQFFDLRLLFLLTALRTDVRQQLFQELHGVRLLTDALELTLGVAPKENPLVILPAQETERAMEILKVLFNITYDSVKREVDEEDAALYRYLGTLLRHCVMADAAGDRTEEFHGHTVNLLGNLPLKCLDVLLALELHEGSLEFMGVNMDVINALLAFLEKRLHQTHRLKECVAPVLSVLTECARMHRPARKFLKAQVLPPLRDVRTRPEVGDLLRNKLVRLMTHLDTDVKRVAAEFLFVLCSESVPRFIKYTGYGNAAGLLAARGLMAGGRPEGQYSEDEDTDTEEYREAKASINPVTGRVEEKAPNPMEGMTEEQKEHEAMKLVNMFDKLSR
B5: Ric-8A (1-491) P464A (domain or fragment)
chain: MEPRAVADALETGEEDAVTEALRSFNREHSQSFTFDDAQQEDRKRLAKLLVSVLEQGLSPKHRVTWLQTIRILSRDRSCLDSFASRQSLHALACYADIAISEEPIPQPPDMDVLLESLKCLCNLVLSSPTAQMLAAEARLVVRLAERVGLYRKRSYPHEVQFFDLRLLFLLTALRTDVRQQLFQELHGVRLLTDALELTLGVAPKENPLVILPAQETERAMEILKVLFNITYDSVKREVDEEDAALYRYLGTLLRHCVMADAAGDRTEEFHGHTVNLLGNLPLKCLDVLLALELHEGSLEFMGVNMDVINALLAFLEKRLHQTHRLKECVAPVLSVLTECARMHRPARKFLKAQVLPPLRDVRTRPEVGDLLRNKLVRLMTHLDTDVKRVAAEFLFVLCSESVPRFIKYTGYGNAAGLLAARGLMAGGRPEGQYSEDEDTDTEEYREAKASINPVTGRVEEKPANPMEGMTEEQKEHEAMKLVNMFDKLSR
B6: Ric-8A (1-491) E461A (domain or fragment)
chain: MEPRAVADALETGEEDAVTEALRSFNREHSQSFTFDDAQQEDRKRLAKLLVSVLEQGLSPKHRVTWLQTIRILSRDRSCLDSFASRQSLHALACYADIAISEEPIPQPPDMDVLLESLKCLCNLVLSSPTAQMLAAEARLVVRLAERVGLYRKRSYPHEVQFFDLRLLFLLTALRTDVRQQLFQELHGVRLLTDALELTLGVAPKENPLVILPAQETERAMEILKVLFNITYDSVKREVDEEDAALYRYLGTLLRHCVMADAAGDRTEEFHGHTVNLLGNLPLKCLDVLLALELHEGSLEFMGVNMDVINALLAFLEKRLHQTHRLKECVAPVLSVLTECARMHRPARKFLKAQVLPPLRDVRTRPEVGDLLRNKLVRLMTHLDTDVKRVAAEFLFVLCSESVPRFIKYTGYGNAAGLLAARGLMAGGRPEGQYSEDEDTDTEEYREAKASINPVTGRVEAKPPNPMEGMTEEQKEHEAMKLVNMFDKLSR
B7: Ric-8A (1-491) N465A (domain or fragment)
chain: MEPRAVADALETGEEDAVTEALRSFNREHSQSFTFDDAQQEDRKRLAKLLVSVLEQGLSPKHRVTWLQTIRILSRDRSCLDSFASRQSLHALACYADIAISEEPIPQPPDMDVLLESLKCLCNLVLSSPTAQMLAAEARLVVRLAERVGLYRKRSYPHEVQFFDLRLLFLLTALRTDVRQQLFQELHGVRLLTDALELTLGVAPKENPLVILPAQETERAMEILKVLFNITYDSVKREVDEEDAALYRYLGTLLRHCVMADAAGDRTEEFHGHTVNLLGNLPLKCLDVLLALELHEGSLEFMGVNMDVINALLAFLEKRLHQTHRLKECVAPVLSVLTECARMHRPARKFLKAQVLPPLRDVRTRPEVGDLLRNKLVRLMTHLDTDVKRVAAEFLFVLCSESVPRFIKYTGYGNAAGLLAARGLMAGGRPEGQYSEDEDTDTEEYREAKASINPVTGRVEEKPPAPMEGMTEEQKEHEAMKLVNMFDKLSR
B8: Ric-8A (1-491), rat (Resistance to Inhibitors of Cholinesterase 8A) (domain or fragment)
chain: MEPRAVADALETGEEDAVTEALRSFNREHSQSFTFDDAQQEDRKRLAKLLVSVLEQGLSPKHRVTWLQTIRILSRDRSCLDSFASRQSLHALACYADIAISEEPIPQPPDMDVLLESLKCLCNLVLSSPTAQMLAAEARLVVRLAERVGLYRKRSYPHEVQFFDLRLLFLLTALRTDVRQQLFQELHGVRLLTDALELTLGVAPKENPLVILPAQETERAMEILKVLFNITYDSVKREVDEEDAALYRYLGTLLRHCVMADAAGDRTEEFHGHTVNLLGNLPLKCLDVLLALELHEGSLEFMGVNMDVINALLAFLEKRLHQTHRLKECVAPVLSVLTECARMHRPARKFLKAQVLPPLRDVRTRPEVGDLLRNKLVRLMTHLDTDVKRVAAEFLFVLCSESVPRFIKYTGYGNAAGLLAARGLMAGGRPEGQYSEDEDTDTEEYREAKASINPVTGRVEEKPPNPMEGMTEEQKEHEAMKLVNMFDKLSR
B9: Ric-8A (1-491) R458A (domain or fragment)
chain: MEPRAVADALETGEEDAVTEALRSFNREHSQSFTFDDAQQEDRKRLAKLLVSVLEQGLSPKHRVTWLQTIRILSRDRSCLDSFASRQSLHALACYADIAISEEPIPQPPDMDVLLESLKCLCNLVLSSPTAQMLAAEARLVVRLAERVGLYRKRSYPHEVQFFDLRLLFLLTALRTDVRQQLFQELHGVRLLTDALELTLGVAPKENPLVILPAQETERAMEILKVLFNITYDSVKREVDEEDAALYRYLGTLLRHCVMADAAGDRTEEFHGHTVNLLGNLPLKCLDVLLALELHEGSLEFMGVNMDVINALLAFLEKRLHQTHRLKECVAPVLSVLTECARMHRPARKFLKAQVLPPLRDVRTRPEVGDLLRNKLVRLMTHLDTDVKRVAAEFLFVLCSESVPRFIKYTGYGNAAGLLAARGLMAGGRPEGQYSEDEDTDTEEYREAKASINPVTGAVEEKPPNPMEGMTEEQKEHEAMKLVNMFDKLSR
B10: Ric-8A (1-491) K462A (domain or fragment)
chain: MEPRAVADALETGEEDAVTEALRSFNREHSQSFTFDDAQQEDRKRLAKLLVSVLEQGLSPKHRVTWLQTIRILSRDRSCLDSFASRQSLHALACYADIAISEEPIPQPPDMDVLLESLKCLCNLVLSSPTAQMLAAEARLVVRLAERVGLYRKRSYPHEVQFFDLRLLFLLTALRTDVRQQLFQELHGVRLLTDALELTLGVAPKENPLVILPAQETERAMEILKVLFNITYDSVKREVDEEDAALYRYLGTLLRHCVMADAAGDRTEEFHGHTVNLLGNLPLKCLDVLLALELHEGSLEFMGVNMDVINALLAFLEKRLHQTHRLKECVAPVLSVLTECARMHRPARKFLKAQVLPPLRDVRTRPEVGDLLRNKLVRLMTHLDTDVKRVAAEFLFVLCSESVPRFIKYTGYGNAAGLLAARGLMAGGRPEGQYSEDEDTDTEEYREAKASINPVTGRVEEAPPNPMEGMTEEQKEHEAMKLVNMFDKLSR

The assay addresses myristoylated Gαi1 harboring a hexahistidine tag in the helical domain (rat) (UniProt P10824).
Chain of UniProt P10824 (P10824 whole entry, the tested form may be a part): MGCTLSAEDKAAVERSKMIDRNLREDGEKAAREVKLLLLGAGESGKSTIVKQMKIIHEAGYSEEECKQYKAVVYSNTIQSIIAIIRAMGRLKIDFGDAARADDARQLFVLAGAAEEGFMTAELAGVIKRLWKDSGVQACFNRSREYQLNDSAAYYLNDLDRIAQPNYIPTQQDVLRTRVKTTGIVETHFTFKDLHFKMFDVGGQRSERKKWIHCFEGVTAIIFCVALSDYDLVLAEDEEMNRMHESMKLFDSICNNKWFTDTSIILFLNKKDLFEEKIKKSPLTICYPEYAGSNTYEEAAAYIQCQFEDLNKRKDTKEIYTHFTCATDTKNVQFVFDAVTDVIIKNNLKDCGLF
Consider B1, for which the v1: initial velocity of GDP to GTPγS exchange at Gαi1•GDP (2 μM) on adding GTPγS (10 μM) and Ric-8A (2 μM), tryptophan fluorescence, 25°C was determined as 3.47 µM/min; the v2: initial rate of GTPγS binding to pre-formed Gαi1:Ric-8A (2 μM each, incubated 5 min before 10 μM GTPγS), with release of Ric-8A, tryptophan fluorescence, 25°C was determined as 6.02 µM/min.
For B2, in that order: 5.65 µM/min and 6.85 µM/min.
Molecule B3 yielded a v1: initial velocity of GDP to GTPγS exchange at Gαi1•GDP (2 μM) on adding GTPγS (10 μM) and Ric-8A (2 μM), tryptophan fluorescence, 25°C of 6.54 µM/min; a v2: initial rate of GTPγS binding to pre-formed Gαi1:Ric-8A (2 μM each, incubated 5 min before 10 μM GTPγS), with release of Ric-8A, tryptophan fluorescence, 25°C of 5.36 µM/min.
For B4, in that order: 2.9 µM/min and 4.78 µM/min.
The corresponding values for B5 are 2.83 µM/min and 4.73 µM/min.
The corresponding values for B6 are 7.45 µM/min and 5.06 µM/min.
B7 registered a v1: initial velocity of GDP to GTPγS exchange at Gαi1•GDP (2 μM) on adding GTPγS (10 μM) and Ric-8A (2 μM), tryptophan fluorescence, 25°C of 2.25 µM/min; a v2: initial rate of GTPγS binding to pre-formed Gαi1:Ric-8A (2 μM each, incubated 5 min before 10 μM GTPγS), with release of Ric-8A, tryptophan fluorescence, 25°C of 4.56 µM/min.
B8 had a v1: initial velocity of GDP to GTPγS exchange at Gαi1•GDP (2 μM) on adding GTPγS (10 μM) and Ric-8A (2 μM), tryptophan fluorescence, 25°C of 3.84 µM/min; a v2: initial rate of GTPγS binding to pre-formed Gαi1:Ric-8A (2 μM each, incubated 5 min before 10 μM GTPγS), with release of Ric-8A, tryptophan fluorescence, 25°C of 4.66 µM/min.
The corresponding values for B9 are 0.63 µM/min and 0.37 µM/min.
For B10, in that order: 4.46 µM/min and 5.15 µM/min.
